The results in this text go back to paper PMC10502012.

The chains are these.
B1: sybody 27 (VHH)
VHH: QVQLVESGGGSVQAGGSLRLSCAASGDIETIWYLGWFRQAPGKEREGVAALSTVTGSTYYADSVKGRFTVSLDNAKNTVYLQMNSLKPEDTALYYCAAAYTGWMAPLWQWVYSYWGQGTQVTVSA

In one test the target is chicken PHT1 (purified, wild type). Briefly: thermal stability (thermal shift) of PHT1 with TASL peptides. The note with it: chain shown with the change; peptide concentration 50 µM; parent: est. 13.6; read off a plot.
Chain of chicken PHT1 (purified, wild type) (chain, as listed by the source): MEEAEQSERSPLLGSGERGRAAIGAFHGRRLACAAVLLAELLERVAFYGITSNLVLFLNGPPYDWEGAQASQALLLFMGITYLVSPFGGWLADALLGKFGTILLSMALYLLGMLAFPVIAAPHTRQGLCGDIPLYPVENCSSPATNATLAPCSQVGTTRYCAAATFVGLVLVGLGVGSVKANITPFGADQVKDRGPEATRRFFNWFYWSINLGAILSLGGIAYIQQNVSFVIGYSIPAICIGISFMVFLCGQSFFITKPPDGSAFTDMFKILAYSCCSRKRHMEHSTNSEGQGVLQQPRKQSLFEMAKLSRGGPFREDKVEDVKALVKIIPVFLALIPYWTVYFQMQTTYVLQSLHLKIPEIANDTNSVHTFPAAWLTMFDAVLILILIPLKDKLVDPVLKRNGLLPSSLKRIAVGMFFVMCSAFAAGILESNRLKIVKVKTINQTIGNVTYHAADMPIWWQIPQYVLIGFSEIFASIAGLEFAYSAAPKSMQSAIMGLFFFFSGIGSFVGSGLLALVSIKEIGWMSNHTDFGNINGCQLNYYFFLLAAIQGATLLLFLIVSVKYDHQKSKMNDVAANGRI
For ALSEGYLYRIAYL [TASL_(1-13) peptide M1A], the other: ΔTm amounted to 5.1 Kelvin.

With MLSEGYAYRIAYL [TASL_(1-13) peptide L7A], the other: ΔTm worked out at 13 Kelvin.

Take MLAEGYLYRIAYL [TASL_(1-13) peptide S3A]: the other: ΔTm came out at 13 Kelvin.

Turning to MLSEGYLARIAYL [TASL_(1-13) peptide Y8A], the other: ΔTm stood at 9.9 Kelvin.

MLSAGYLYRIAYL [TASL_(1-13) peptide E4A]: the other: ΔTm was determined as 0.45 Kelvin.

On to MASEGYLYRIAYL [TASL_(1-13) peptide L2A], for which the other: ΔTm amounted to 5.6 Kelvin.

Take MLSEGALYRIAYL [TASL_(1-13) peptide Y6A]: the other: ΔTm stood at 11 Kelvin.

As to MLSEGYLYAIAYL [TASL_(1-13) peptide R9A], the other: ΔTm turned out to be 6.9 Kelvin.

Still in this test, the particulars now being: chain shown with the change; peptide concentration 50 µM; read off a plot.
MLSEGYLYRIAYLA [TASL peptide with a length of 14 residues C14A]: the other: ΔTm is 15 Kelvin.

For a further test, the target named is biotinylated chicken PHT1 (BLI sample) (chicken). Briefly: BLI; biotinylated PHT1 on streptavidin biosensors; Sb27 6-800 nM; 22 °C; 50 mM HEPES pH 7.5, 100 mM NaCl, 0.02% DDM/0.004% CHS, 0.5% BSA; 1:1 binding model.
Chain of biotinylated chicken PHT1 (BLI sample) (chicken) (A6QQL0 other isoform, or with tags, fused parts or gaps): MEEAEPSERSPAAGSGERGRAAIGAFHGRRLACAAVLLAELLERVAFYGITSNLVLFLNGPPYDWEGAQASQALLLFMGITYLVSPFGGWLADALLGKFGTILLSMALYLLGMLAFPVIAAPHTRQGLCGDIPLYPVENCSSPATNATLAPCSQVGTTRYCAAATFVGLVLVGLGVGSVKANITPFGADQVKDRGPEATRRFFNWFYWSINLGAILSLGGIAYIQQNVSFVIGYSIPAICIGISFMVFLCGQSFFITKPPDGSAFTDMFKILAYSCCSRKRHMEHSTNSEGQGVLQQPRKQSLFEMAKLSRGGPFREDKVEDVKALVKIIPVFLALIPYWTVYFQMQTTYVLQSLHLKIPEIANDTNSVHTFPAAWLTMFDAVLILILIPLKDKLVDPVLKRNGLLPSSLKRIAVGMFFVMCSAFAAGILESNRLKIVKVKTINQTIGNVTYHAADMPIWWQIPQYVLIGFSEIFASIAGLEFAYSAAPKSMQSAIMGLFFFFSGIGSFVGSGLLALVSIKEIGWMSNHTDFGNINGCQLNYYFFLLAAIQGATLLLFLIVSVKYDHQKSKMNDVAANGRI
Settings: not given
In general terms: BLI is a label-free optical method that tracks binding on a fibre tip over time.
As to B1, the Kd came out at 400 nM. This counts as sub-micromolar.

By Kd is commonly meant a measure of binding affinity in units of concentration. High values mean a looser complex, low ones a tighter complex.
